# Legend:
# [1] = ^3H-PGE2 competition ELISA (prostaglandin selectivity); assay type: binding
# Protocol: (§1) Alternatively, prostaglandin selectivity was determined using a ^3H-PGE2 competition ELISA. Plates were coated with 50 μL/well of 5 μg/ml of goat anti-human IgG (Fc) (Thermo Scientific # 31170, Hudson, N.H.) or goat anti-mouse IgG (Fc) (Thermo Scientific # 31125, Hudson, N.H.) in PBS and incubated overnight at 4° C. The following day plates were flicked and blotted dry. Plates were blocked with 200 μL/well of Superblock (Thermo Scientific # 37515, Hudson, N.H.), 1 hour at room temperature. Plates were flicked and blotted dry. Monoclonal antibodies were diluted to 0.04 μg/ml in PBST (Abbott Bioresearch Center, Worcester, Mass.)/10% Superblock and 50 μL of each was added to each well (2 ng/well) of the pre-blocked ELISA plate and incubated for 1 hour at room temperature. Wells were washed 3 times with PBS/0.1% Tween-20. ^3H-PGE2 (Perkin Elmer # NET-428, Waltham, Mass.) was diluted in PBST/10% Superblock to 6 nM (2× stock). Each prostaglandin (Cayman Chemicals, Ann Arbor, Mich.) was prepared in PBST+10% Superblock at various concentrations ranging from 2000 μM (2× stock) to 0.00004 μM (2×). Equal volumes of the ^3H-PGE2 solution and of each prostaglandin dilution were mixed. Fifty microliters of this mixture was then added to each well of the plate and incubated for 1 hour at room temperature. Wells were washed manually 6 times with PBST/10% Superblock and 50 μL of scintillation fluid (Perkin Elmer # 6013621, Waltham, Mass.) added to each well. Plates were read using a TopCount reader (Perkin Elmer, Waltham, Mass.) with a 5 minute count delay. IC50 number was determined using GraphPad Prism 5 (GraphPad Software, La Jolla, Calif.). The cross reactivity index was then calculated by IC50 of PGE2/IC50 of other prostaglandin(s)
# [2] = Biotin-PGE2 competition ELISA (prostaglandin selectivity); assay type: binding
# Protocol: (§2) Competition enzyme linked immunosorbent assays were performed to determine prostaglandin binding specificity for antibodies that bind prostaglandin E2, according to at least one of the two following methods.
# (§3) ELISA plates (Costar 3369, Corning, N.Y.) were coated with 50 μl/well of anti-host Fc IgG (Sigma, St. Louis, Mo.) at 2 μg/ml in PBS (Invitrogen, Carlsbad, Calif.). Following an overnight incubation at 4° C., the plate was blocked with 200 μl Superblock (Pierce #37535, Rockford, Ill.). The IgG samples were diluted to 6 μg/ml in Assay Buffer (10% Superblock in PBS containing 0.05% Surfactamps (Pierce #37535, Rockford, Ill.). The PGE2-biotinamide was diluted to 3 nM in Assay Buffer. A titration curve in Assay Buffer was prepared for the prostaglandins PGA2 (Cayman Chemicals, Ann Arbor, Mich.), PGD2 (Cayman Chemicals, Ann Arbor, Mich.) and PGE2 (Cayman Chemicals, Ann Arbor, Mich.) starting at 300 nM by a 1:10 serial dilution. The reagents were added to tubes at a volume of 50 μl each/tube and preincubated for 1 hour at room temperature. Following the preincubation, the mix was transferred to the blocked plates and allowed to incubate for 1 hour at room temperature. Next, the plates were washed four times with Tween 20-Tris buffered solution (TTBS). Streptavidin polyhrp40 in Assay Buffer (Fitzgerald Industries, Concord, Mass.) at a 1:5000 dilution was then added to the wells and incubated for 45 minutes at room temperature. A final wash step was performed and the plates were developed using a single step TMB system (Sigma #T8665, Sigma, St. Louis, Mo.) and 100 μl/well 2N H2SO4. Plates were read at 450 nm on a Molecular Devices Spectramax plate reader (Sunnyvale, Calif.). […] IC50 number was determined using GraphPad Prism 5 (GraphPad Software, La Jolla, Calif.). The cross reactivity index was then calculated by IC50 of PGE2/IC50 of other prostaglandin(s).
# [3] = PGE2 competition ELISA, format not stated (biotin-PGE2 or ^3H-PGE2); assay type: binding; details: humanized antibodies table
# Protocol: as §2, §3, §1
# Several antibodies, named 19C9, 4F10 and 15F10 specific for PGE2 were isolated. […] The specificity of these antibodies for PGE2 was further determined by a competition ELISA with various prostaglandins as described in Example 1.B (Table 2). […]
# [4] = Capillary zone electrophoresis; assay type: physicochemical; details: running buffer pH 5.5; compared with Hu2B5.2, Hu2B5.4, Hu2B5.6, Hu2B5.8
# Text: Capillary zone electrophoresis is a capillary electrophoresis method in which the capillary is filled with buffer and the separation mechanism is based on differences in electrophoretic mobility of the analyte through the buffer. The electrophoretic mobility of a molecule is related to the charge-to-size ratio. A Beckman-Coulter ProteomeLab PA 800 (Beckman Coulter, Fullerton, Calif.) was used for the CZE analysis. A neutral capillary (eCAP neutral, 56 cm total length, 50 μm I. D. Beckman-Coulter, P/N 477441, Fullerton, Calif.) was used. The method used a 30.2 cm capillary with a detection window 20.2 cm from the sample introduction inlet. The running buffer was 100 mM EACA (6-Aminocaproic acid, Sigma A7824-100 G, St. Louis, Mo.) with 0.1% MC (from 1% Methylcellulose solution, Convergent Bioscience, cat# 101876, Toronto, ON, Canada), pH 5.5.
molecule,measurement,setting,value
"2B5-8.0: recombinant anti-PGE2 antibody from solved 2B5 sequence; VH SEQ ID NO 42, VL SEQ ID NO 43 (antibody, V domains shown) VH: QVQLQQSGPELVRPGSSVKISCKASGYTFTKYWLGWVKQRPGHGLEWIGDIYPGYDYTHYNEKFKDKATLTVDTSSSTAYMQLSSLTSEDSAIYYCARSDGSSTYWGQGTLVTVSA VL: DVLMTQTPLSLPVSLGDQASISCTSSQNIVHSNGNTYLEWYLQRPGQSPKLLIYKVSNRFSGVPDRFSGSGSGTVFTLKISRVEAEDLGVYYCFQVSHVPYTFGGGTKLEIKR","PG Selectivity in ^3H-PGE2 competition ELISA (CRI %) 2,3-dinor-6-keto-PGF1α","[1]; 2,3-dinor-6-keto-PGF1α",0.019%
same,PG Selectivity in ^3H-PGE2 competition ELISA (CRI %) 5(S)-HETE,[1]; 5(S)-HETE,<0.01%
same,PG Selectivity in ^3H-PGE2 competition ELISA (CRI %) 6-keto PGF1α,[1]; 6-keto PGF1α,0.64%
same,PG Selectivity in ^3H-PGE2 competition ELISA (CRI %) 8-iso PGF2α,[1]; 8-iso PGF2α,0.092%
same,"PG Selectivity in ^3H-PGE2 competition ELISA (CRI %) 13,14-dihydroxyl-15-keto PGE2","[1]; 13,14-dihydroxyl-15-keto PGE2",0.012%
same,PG Selectivity in ^3H-PGE2 competition ELISA (CRI %) 15-keto PGE2,[1]; 15-keto PGE2,0.013%
same,PG Selectivity in ^3H-PGE2 competition ELISA (CRI %) 15R-Pinane TXA2,[1]; 15R-Pinane TXA2,0.00043%
same,PG Selectivity in ^3H-PGE2 competition ELISA (CRI %) 19R-hydroxy PGE2,[1]; 19R-hydroxy PGE2,0.09%
same,PG Selectivity in ^3H-PGE2 competition ELISA (CRI %) Arachidonic acid,[1]; Arachidonic acid,<0.01%
same,PG Selectivity in ^3H-PGE2 competition ELISA (CRI %) Carbaprostacyclin,[1]; Carbaprostacyclin,0.18%
same,PG Selectivity in ^3H-PGE2 competition ELISA (CRI %) Carbocyclic TXA2,[1]; Carbocyclic TXA2,0.0005%
same,PG Selectivity in ^3H-PGE2 competition ELISA (CRI %) Iloprost,[1]; Iloprost,0.01%
same,PG Selectivity in ^3H-PGE2 competition ELISA (CRI %) LTE4,[1]; LTE4,0.012%
same,PG Selectivity in ^3H-PGE2 competition ELISA (CRI %) PGA2,[1]; PGA2,0.04%
same,PG Selectivity in ^3H-PGE2 competition ELISA (CRI %) PGB2,[1]; PGB2,0.00038%
same,PG Selectivity in ^3H-PGE2 competition ELISA (CRI %) PGD2,[1]; PGD2,<1 × 10^−4%
same,PG Selectivity in ^3H-PGE2 competition ELISA (CRI %) PGE1,[1]; PGE1,3.6%
same,PG Selectivity in ^3H-PGE2 competition ELISA (CRI %) PGE2,[1]; PGE2,100%
same,PG Selectivity in ^3H-PGE2 competition ELISA (CRI %) PGF2α,[1]; PGF2α,0.05%
same,PG Selectivity in ^3H-PGE2 competition ELISA (CRI %) PGI2,[1]; PGI2,0.16%
same,PG Selectivity in ^3H-PGE2 competition ELISA (CRI %) Pinane TXA2,[1]; Pinane TXA2,0.00033%
same,PG Selectivity in ^3H-PGE2 competition ELISA (CRI %) TXB2,[1]; TXB2,<0.01%
same,PG Selectivity in Biotin-PGE2 Competition ELISA (CRI %) PGA2,[2]; PGA2,0.21%
same,PG Selectivity in Biotin-PGE2 Competition ELISA (CRI %) PGD2,[2]; PGD2,<0.01%
same,PG Selectivity in Biotin-PGE2 Competition ELISA (CRI %) PGE1,[2]; PGE1,28%
"Hu2B5.6: humanized 2B5-8.0; VH SEQ ID NO 70, VL SEQ ID NO 71 (antibody, V domains shown) VH: EVQLVQSGAEVKKPGASVKVSCKASGYTFTKYWLGWVRQAPGQGLEWMGDIYPGYDYTHYNEKFKDRVTLTTDTSTSTAYMELSSLRSDDTAVYYCARSDGSSTYWGQGTLVTVSS VL: DVVMTQTPLSLPVTPGEPASISCTSSQNIVHSNGNTYLEWYLQKPGQSPQLLIYKVSNRFSGVPDRFSGSGSGTDFTLKISRVEAEDVGVYYCFQVSHVPYTFGGGTKVEIKR",Cross Reactivity Index (%) PGA2,[3],0.15%
same,Cross Reactivity Index (%) PGD2,[3],<0.01%
same,Cross Reactivity Index (%) PGE1,[3],11%
"Hu2B5.8: humanized 2B5-8.0; VH SEQ ID NO 74, VL SEQ ID NO 75 (antibody, V domains shown) VH: EVQLVQSGAEVKKPGASVKVSCKASGYTFTKYWLGWVRQAPGQGLEWMGDIYPGYDYTHYNEKFKDRVTLTTDTSTSTAYMELSSLRSDDTAVYYCARSDGSSTYWGQGTLVTVSS VL: DVLMTQTPLSLPVTPGEPASISCTSSQNIVHSNGNTYLEWYLQKPGQSPQLLIYKVSNRFSGVPDRFSGSGSGTDFTLKISRVEAEDVGVYYCFQVSHVPYTFGGGTKVEIKR",Cross Reactivity Index (%) PGA2,[3],0.20%
same,Cross Reactivity Index (%) PGD2,[3],<0.01%
same,Cross Reactivity Index (%) PGE1,[3],8.5%
"Hu2B5.1: humanized 2B5-8.0; VH SEQ ID NO 60, VL SEQ ID NO 61 (antibody, V domains shown) VH: EVQLVQSGAEVKKPGASVKVSCKASGYTFTKYWLGWVRQAPGQGLEWIGDIYPGYDYTHYNEKFKDRATLTVDTSTSTAYMELRSLRSDDTAVYYCARSDGSSTYWGQGTLVTVSS VL: DVVMTQTPLSLPVTPGEPASISCTSSQNIVHSNGNTYLEWYLQKPGQSPQLLIYKVSNRFSGVPDRFSGSGSGTDFTLKISRVEAEDVGVYYCFQVSHVPYTFGGGTKVEIKR",migration in capillary zone electrophoresis,[4],migrated more basic
same,Cross Reactivity Index (%) PGA2,[3],0.21%
same,Cross Reactivity Index (%) PGD2,[3],<0.01%
same,Cross Reactivity Index (%) PGE1,[3],16%
"Hu2B5.4: humanized 2B5-8.0; VH SEQ ID NO 66, VL SEQ ID NO 67 (antibody, V domains shown) VH: EVQLVQSGAEVKKPGASVKVSCKASGYTFTKYWLGWVRQAPGQGLEWIGDIYPGYDYTHYNEKFKDRATLTVDTSTSTAYMELSSLRSDDTAVYYCARSDGSSTYWGQGTLVTVSS VL: DVLMTQTPLSLPVTPGEPASISCTSSQNIVHSNGNTYLEWYLQKPGQSPQLLIYKVSNRFSGVPDRFSGSGSGTDFTLKISRVEAEDVGVYYCFQVSHVPYTFGGGTKVEIKR",Cross Reactivity Index (%) PGA2,[3],0.22%
same,Cross Reactivity Index (%) PGD2,[3],<0.01%
same,Cross Reactivity Index (%) PGE1,[3],14%
"Hu2B5.3: humanized 2B5-8.0; VH SEQ ID NO 64, VL SEQ ID NO 65 (antibody, V domains shown) VH: EVQLVQSGAEVKKPGASVKVSCKASGYTFTKYWLGWVRQAPGQGLEWIGDIYPGYDYTHYNEKFKDRATLTVDTSTSTAYMELRSLRSDDTAVYYCARSDGSSTYWGQGTLVTVSS VL: DVLMTQTPLSLPVTPGEPASISCTSSQNIVHSNGNTYLEWYLQKPGQSPQLLIYKVSNRFSGVPDRFSGSGSGTDFTLKISRVEAEDVGVYYCFQVSHVPYTFGGGTKVEIKR",migration in capillary zone electrophoresis,[4],migrated more basic
same,Cross Reactivity Index (%) PGA2,[3],0.18%
same,Cross Reactivity Index (%) PGD2,[3],<0.01%
same,Cross Reactivity Index (%) PGE1,[3],14%
"Hu2B5.2: humanized 2B5-8.0; VH SEQ ID NO 62, VL SEQ ID NO 63 (antibody, V domains shown) VH: EVQLVQSGAEVKKPGASVKVSCKASGYTFTKYWLGWVRQAPGQGLEWIGDIYPGYDYTHYNEKFKDRATLTVDTSTSTAYMELSSLRSDDTAVYYCARSDGSSTYWGQGTLVTVSS VL: DVVMTQTPLSLPVTPGEPASISCTSSQNIVHSNGNTYLEWYLQKPGQSPQLLIYKVSNRFSGVPDRFSGSGSGTDFTLKISRVEAEDVGVYYCFQVSHVPYTFGGGTKVEIKR",Cross Reactivity Index (%) PGA2,[3],0.18%
same,Cross Reactivity Index (%) PGD2,[3],<0.01%
same,Cross Reactivity Index (%) PGE1,[3],14%

# — patent US8624002B2, “Prostaglandin E2 binding proteins and uses thereof” (AbbVie, Inc., priority 2008, dated 2014)
